Columns and labels:
[1] = molecular target: T1, Human GUCY2C protein on cells (HCT116/hGUCY2C, HT-55, T84, LS1034, LS174T) (human, UniProt P25092 24-1073); test: flow cytometry on HCT116/hGUCY2C cells, R-PE goat anti-human IgG secondary antibody
T1 construct: also called GUCY2C on the cell surface
Experimental: Experiment 1: 1E5 cells resuspended in 1% BSA were added to the reaction wells, and the supernatant was removed after centrifugation. Diluted antibody of the corresponding concentration was added, and the mixture was incubated at room temperature for 30 min and then washed twice with 1% BSA. […] After the plate was washed twice with 10% BSA, fluorescence signals were read using a flow cytometer.

[2] = molecular target: T2, hGUCY2C ECD-His (human, UniProt P25092 24-430); test: ELISA, antigen on streptavidin plate
T2 construct: also called human GUCY2C protein
Experimental: In this test example, the binding activity of the GUCY2C-CD3 bispecific antibodies for human GUCY2C was detected by ELISA. The specific procedures are as follows:
The plate was coated by adding 100 ng of streptavidin (ACRO #STN-N5116) to the reaction wells and incubated overnight at 4° C. After the blocking with 1% BSA (PBS), 100 ng of hGUCY2C ECD-His was added, and the mixture was incubated at 37° C. for 1 h. After plate washing, the gradiently diluted antibody was added, and the mixture was incubated at 37° C. for 1 h. […] After plate washing, a substrate solution was added, and a stop solution was then added after sufficient color development to stop the reaction. The signal values at […] were read using a microplate reader.

EC50 (read off the curve) [1]: ~1 nM
EC50 [2]: 1.23 nM
B1: 1608-BsAb (bispecific antibody)
chain 1: DIQLTQSPSSLSASVGDRVTITCRASESVDYYGSSLLQWYQQKPGKAPKLLIYAASKLASGVPSRFSGSGSGTDFTLTISSLQPEDFATYYCQQTRKAYTFGQGTKLEIKGGGSGGGGEVQLVESGGGLVQPGGSLRLSCAASGFTFSDYYMTWVRQAPGKGLEWVAFIRNQARGYTSDHNPSVKGRFTISRDNAKNSLYLQMNSLRAEDTAVYYCARDRPSYYVLDYWGQGTTVTVSSGCPPCPAPEAAGAPSVFLFPPKPKDTLMISRTPEVTCVVVDVSHEDPEVKFNWYVDGVEVHNAKTKPREEQYNSTYRVVSVLTVLHQDWLNGKEYKCKVSNKALPAPIEKTISKAKGQPREPQVCTLPPSREEMTKNQVSLWCLVKGFYPSDIAVEWESNGQPENNYKTTPPVLDSDGSFFLYSKLTVDKSRWQQGNVFSCSVMHEALHNHYTQKSLSLSPG
chain 2: DIQMTQSPSSLSASVGDRVTITCTSSQSLFNVRSQKNYLAWYQQKPGKAPKLLIYWASTRESGVPSRFSGSGSGTDFTLTISSLQPEDFATYYCKQSYDLFTFGGGTKVEIKGGGGSGGGGEVQLVESGGGLVQPGGSLRLSCAASGFTFSSYWMHWVRQAPGKGLEWIGEIKPSNELTNVHEKFKDRFTISVDKAKNSAYLQMNSLRAEDTAVYYCTRTITTTEGYWFFDVWGQGTLVTVSSGCPPCPAPEAAGAPSVFLFPPKPKDTLMISRTPEVTCVVVDVSHEDPEVKFNWYVDGVEVHNAKTKPREEQYNSTYRVVSVLTVLHQDWLNGKEYKCKVSNKALPAPIEKTISKAKGQPREPQVYTLPPCREEMTKNQVSLSCAVKGFYPSDIAVEWESNGQPENNYKTTPPVLDSDGSFFLVSKLTVDKSRWQQGNVFSCSVMHEALHNHYTQKSLSLSPG

Reference: patent US20260028421A1 (JIANGSU HENGRUI PHARMACEUTICALS, published 2026)
